# Measurements: the supplement of paper PMC7877785
# ± gives the uncertainty stated by the source.
# Assay: self-splicing fitness, log relative to wild type (ln ratio); higher = more splicing; Tetrahymena group I intron in knt gene, E. coli kanamycin selection, DiMSum; sequences stand for … in CUCUCU…GGAGGGAAAAGUUAUCAGGCAUGCACCUGGUAGCUAGUCUUUAAACCAAUAGAUUGCAUCGGUUUAAAAGGCAAGACCGUCAAAUUGCGGGAAAGGGGUCAACAGCCGUUCAGUACCAAGUCUCAGGGGAAACUUUGAGAUGGCCUUGCAAAGGGUAUGGUAAUAAGCUGACGGACAUGGUCCUAACCACGCAGCCAAGUCCUAAGUCAACAGAUCUUCUGUUGAUAUGGAUGCAGUUCACAGACUAAAUGUCGGUCGGGGAAGAUGUAUUCUUCUCAUAAGAUAUAGUCGGACCUCUCCUUAAUGGGAGCUAGCGGAUGAAGUGAUGCAACACUGGAGCCGCUGGGAACUAAUUUGUAUGCGAAAGUAUAUUGAUUAGUUUUGGAGUACUCGUGGUCG
# Procedure, shortened: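 Fitness was computed with DiMSum as the error-weighted combination of replicate fold changes, kanamycin versus none, each normalised to wild type. The library randomised all eight intron nucleotides of the P1ex region, with the intron placed in the knt kanamycin-resistance gene on pET-22b(+) in E. coli BL21(DE3). Six replicate transformations were grown overnight at 37°C or 30°C on LB agar with or without 25 μg/mL kanamycin, plus 100 μg/mL carbenicillin, 50 μM IPTG and 0.2% rhamnose. Pooled colonies were amplicon-sequenced on an Illumina HiSeq 2500.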
Sequence,self-splicing fitness (ln) (30 °C),self-splicing fitness (ln) (37 °C)
UCAGAGCAAUAUUACGCACA,-1.74 ± 0.29,0.554 ± 0.43
UCAGAGCAAUAUUACGCAGU,-0.644 ± 0.22,-1.83 ± 0.41
UCAGAGCAAUAUUACGCUAA,–,1.19 ± 0.3
UCAGAGCAAUAUUACGCUGA,-3.04 ± 0.34,-2.1 ± 0.37
UCAGAGCAAUAUUACGGUCG,-2.95 ± 0.16,-1.32 ± 0.14
UCAGAGCAAUAUUACGGUUA,-2.88 ± 0.26,-2.05 ± 0.22
UCAGAGCAAUAUUACGGUUC,-3.72 ± 0.33,-1.84 ± 0.21
UCAGAGCAAUAUUACGGUUG,-3.9 ± 0.31,-2.35 ± 0.26
UCAGAGCAAUAUUACGGUUU,-3.76 ± 0.28,-2.07 ± 0.18
UCAGAGCAAUAUUACGUGAU,-3.03 ± 0.32,-2.94 ± 0.26
UCAGAGCAAUAUUACGUGGC,-3.85 ± 0.25,-2.32 ± 0.26
UCAGAGCAAUAUUACGUUCA,-1.71 ± 0.27,-2.48 ± 0.39
UCAGAGCAAUAUUACGUUGA,-2.33 ± 0.12,-1.54 ± 0.14
UCAUAGCAAUAUUACGAAGU,-3.43 ± 0.16,-3.51 ± 0.39
UCAUAGCAAUAUUACGACUU,-3.87 ± 0.28,-2.42 ± 0.39
UCAUAGCAAUAUUACGAGAA,-2.05 ± 0.3,-2.55 ± 0.36
UCAUAGCAAUAUUACGAUCA,-1.3 ± 0.13,-0.941 ± 0.16
UCAUAGCAAUAUUACGAUCC,–,-1.7 ± 0.41
UCAUAGCAAUAUUACGCAGU,-4.03 ± 0.36,-3.4 ± 0.31
UCAUAGCAAUAUUACGCCCA,-2 ± 0.21,-0.939 ± 0.18
UCAUAGCAAUAUUACGCCCG,-0.515 ± 0.21,-0.292 ± 0.3
UCAUAGCAAUAUUACGCGGC,-3.53 ± 0.44,–
UCAUAGCAAUAUUACGCUAC,-2.17 ± 0.21,-3.42 ± 0.29
UCAUAGCAAUAUUACGCUAU,-2.88 ± 0.39,-2.08 ± 0.47

Sequence,self-splicing fitness (ln) (30 °C),self-splicing fitness (ln) (37 °C)
UCAUAGCAAUAUUACGGAAA,-2.84 ± 0.41,-2.4 ± 0.28
UCAUAGCAAUAUUACGGACA,-2.48 ± 0.21,-0.42 ± 0.15
UCAUAGCAAUAUUACGGACG,-1.17 ± 0.15,-1.11 ± 0.17
UCAUAGCAAUAUUACGGCCG,-0.395 ± 0.15,0.157 ± 0.16
UCAUAGCAAUAUUACGGCGG,-0.555 ± 0.059,0.417 ± 0.074
UCAUAGCAAUAUUACGGGAA,-1.35 ± 0.19,-1.1 ± 0.16
UCAUAGCAAUAUUACGGGAG,-3.39 ± 0.26,-3.06 ± 0.29
UCAUAGCAAUAUUACGGUGA,-2.39 ± 0.13,-2 ± 0.12
UCAUAGCAAUAUUACGGUUC,-3.57 ± 0.35,–
UCAUAGCAAUAUUACGUGUC,-3.2 ± 0.21,-3.08 ± 0.27
UCAUAGCAAUAUUACGUUUA,-4.13 ± 0.39,-2.11 ± 0.2
UCAUAGCAAUAUUACGUUUU,-2.81 ± 0.14,-1.29 ± 0.14
UCCAAGCAAUAUUACGAACU,-2.6 ± 0.15,-1.06 ± 0.15
UCCAAGCAAUAUUACGAAUG,-4.26 ± 0.21,-2.95 ± 0.2
UCCAAGCAAUAUUACGACUG,-3.78 ± 0.16,-2.6 ± 0.17
UCCAAGCAAUAUUACGAGCA,-0.834 ± 0.08,-0.0464 ± 0.1
UCCAAGCAAUAUUACGAGUU,-3.75 ± 0.28,-1.33 ± 0.2
UCCAAGCAAUAUUACGAUCG,-2.65 ± 0.19,-3.06 ± 0.24
UCCAAGCAAUAUUACGCAUC,-3.02 ± 0.21,-2.93 ± 0.24
UCCAAGCAAUAUUACGCCUC,-2.33 ± 0.29,-2.53 ± 0.28
UCCAAGCAAUAUUACGCCUG,-4.15 ± 0.42,-2.26 ± 0.27
UCCAAGCAAUAUUACGCGAG,-4.03 ± 0.24,-2.93 ± 0.27
UCCAAGCAAUAUUACGCUGA,-1.43 ± 0.092,-1.07 ± 0.085
UCCAAGCAAUAUUACGCUGC,-2.94 ± 0.21,-2.61 ± 0.27
